Substitutions are numbered along the chain they refer to. Names and notes keep the numbering of the source.
What was measured:
Assay in all cases: BLI; Octet RED96; client biotinylated and loaded on streptavidin sensors; Spy or Spy variant in solution at 0.25, 0.5, 1, 1.5 and 2 μM; 40 mM HEPES, 150 mM NaCl, pH 7.5; Kd calculated as koff/kon
Conditions in all cases: both partners purified
Spy D26E = target: T1, Spy D26E (UniProt P77754 24-161, D26E)
T1 construct: source: E. coli BL21 (DE3), purified (Ni-NTA, cation exchange, SEC); not shown: His6, N-terminal, cleaved; SUMO, N-terminal, cleaved
T1 sequence (looked up): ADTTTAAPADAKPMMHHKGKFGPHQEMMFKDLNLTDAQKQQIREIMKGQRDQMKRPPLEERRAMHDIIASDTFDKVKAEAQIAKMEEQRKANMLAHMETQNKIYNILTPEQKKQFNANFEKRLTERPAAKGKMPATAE

Spy D26K = target: T2, Spy D26K (UniProt P77754 24-161, D26K)
T2 construct: source: E. coli BL21 (DE3), purified (Ni-NTA, cation exchange, SEC); not shown: His6, N-terminal, cleaved; SUMO, N-terminal, cleaved
T2 sequence (looked up): T1 sequence (looked up) with E26K

Spy D26A = target: T3, Spy D26A (UniProt P77754 24-161, D26A)
T3 construct: source: E. coli BL21 (DE3), purified (Ni-NTA, cation exchange, SEC); not shown: His6, N-terminal, cleaved; SUMO, N-terminal, cleaved
T3 sequence (looked up): T1 sequence (looked up) with E26A

Spy D26R = target: T4, Spy D26R (UniProt P77754 24-161, D26R)
T4 construct: source: E. coli BL21 (DE3), purified (Ni-NTA, cation exchange, SEC); not shown: His6, N-terminal, cleaved; SUMO, N-terminal, cleaved
T4 sequence (looked up): T1 sequence (looked up) with E26R

Spy_(29-124) R89D = target: T5, Spy_(29-124) R89D (UniProt P77754 52-147, R89D)
T5 construct: source: E. coli BL21 (DE3), purified (Ni-NTA, cation exchange, SEC); not shown: His6, N-terminal, cleaved; SUMO, N-terminal, cleaved
T5 sequence (looked up): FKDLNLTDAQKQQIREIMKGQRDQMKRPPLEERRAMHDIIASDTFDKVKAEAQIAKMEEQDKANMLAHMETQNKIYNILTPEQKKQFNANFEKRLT

Spy_(29-124) K75D = target: T6, Spy_(29-124) K75D (UniProt P77754 52-147, K75D)
T6 construct: source: E. coli BL21 (DE3), purified (Ni-NTA, cation exchange, SEC); not shown: His6, N-terminal, cleaved; SUMO, N-terminal, cleaved
T6 sequence (looked up): T5 sequence (looked up) with K47D, D61R

Spy_(29-124) R43D = target: T7, Spy_(29-124) R43D (UniProt P77754 52-147, R43D)
T7 construct: source: E. coli BL21 (DE3), purified (Ni-NTA, cation exchange, SEC); not shown: His6, N-terminal, cleaved; SUMO, N-terminal, cleaved
T7 sequence (looked up): T5 sequence (looked up) with R15D, D61R

Spy_(29-124) R61D R62D = target: T8, Spy_(29-124) R61D R62D (UniProt P77754 52-147, R61D | R62D)
T8 construct: source: E. coli BL21 (DE3), purified (Ni-NTA, cation exchange, SEC); not shown: His6, N-terminal, cleaved; SUMO, N-terminal, cleaved
T8 sequence (looked up): T5 sequence (looked up) with R33D, R34D, D61R

Spy_(29-124) K121D R122D = target: T9, Spy_(29-124) K121D R122D (UniProt P77754 52-147, K121D | R122D)
T9 construct: source: E. coli BL21 (DE3), purified (Ni-NTA, cation exchange, SEC); not shown: His6, N-terminal, cleaved; SUMO, N-terminal, cleaved
T9 sequence (looked up): T5 sequence (looked up) with D61R, K93D, R94D

Spy_(29-124) R50D = target: T10, Spy_(29-124) R50D (UniProt P77754 52-147, R50D)
T10 construct: source: E. coli BL21 (DE3), purified (Ni-NTA, cation exchange, SEC); not shown: His6, N-terminal, cleaved; SUMO, N-terminal, cleaved
T10 sequence (looked up): T5 sequence (looked up) with R22D, D61R

B1: Im7 H40W L53A I54A (natural protein)
chain: MELKNSISDYTEAEFVQLLKEIEKENVAATDDVLDVLLEWFVKITEHPDGTDAAYYPSDNRDDSPEGIVKEIKEWRAANGKPGFKQG
modifications: biotin (EZ-link NHS-biotin, 1:1 molar ratio of biotin to protein)
notes: Im7 (colicin E7 immunity protein) with H40W L53A I54A; Spy was made with an N-terminal His6-SUMO tag that was cleaved; also called Im7AAW; partially folded client; source: purified by a similar procedure to Spy
Question: What does the source list for B1?
Answer: kon (Spy D26E): 306000 M⁻¹ s⁻¹; kon (Spy D26K): 317000 M⁻¹ s⁻¹; kon (Spy D26A): 322000 M⁻¹ s⁻¹; kon (Spy D26R): 287000 M⁻¹ s⁻¹; koff (Spy_(29-124) R89D): 0.125 s⁻¹; koff (Spy_(29-124) K75D): 0.0712 s⁻¹; koff (Spy_(29-124) R43D): 0.601 s⁻¹; koff (Spy_(29-124) R61D R62D): 0.262 s⁻¹; koff (Spy_(29-124) K121D R122D): 0.349 s⁻¹; koff (Spy_(29-124) R50D): 0.477 s⁻¹
